Molecular target: T1, cleavage-site mutated recombinant haptoglobin Hp1S (Q101A, R102A), uncleaved proHp (human)
T1 chain: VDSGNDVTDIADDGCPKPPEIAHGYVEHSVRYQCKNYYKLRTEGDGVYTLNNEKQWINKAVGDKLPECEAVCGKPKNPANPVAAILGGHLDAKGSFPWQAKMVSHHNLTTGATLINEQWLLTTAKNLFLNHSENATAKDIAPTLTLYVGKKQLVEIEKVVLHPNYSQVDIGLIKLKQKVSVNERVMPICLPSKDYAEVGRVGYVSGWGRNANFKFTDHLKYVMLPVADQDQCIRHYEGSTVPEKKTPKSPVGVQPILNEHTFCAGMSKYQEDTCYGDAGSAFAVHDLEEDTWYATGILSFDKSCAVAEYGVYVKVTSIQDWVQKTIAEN
Assay: non-reducing SDS-PAGE; Coomassie-stained gel of non-reduced protein samples; disulfide-linked dimers and multimers

B1: cleavage-site mutated recombinant haptoglobin Hp1S (Q101A, R102A), uncleaved proHp (natural protein)
chain: VDSGNDVTDIADDGCPKPPEIAHGYVEHSVRYQCKNYYKLRTEGDGVYTLNNEKQWINKAVGDKLPECEAVCGKPKNPANPVAAILGGHLDAKGSFPWQAKMVSHHNLTTGATLINEQWLLTTAKNLFLNHSENATAKDIAPTLTLYVGKKQLVEIEKVVLHPNYSQVDIGLIKLKQKVSVNERVMPICLPSKDYAEVGRVGYVSGWGRNANFKFTDHLKYVMLPVADQDQCIRHYEGSTVPEKKTPKSPVGVQPILNEHTFCAGMSKYQEDTCYGDAGSAFAVHDLEEDTWYATGILSFDKSCAVAEYGVYVKVTSIQDWVQKTIAEN
modifications: Uncleaved single-chain proHp1S with signal peptide removed; paper's Q101/R102 (precursor Hp1 numbering) = Q160/R161 of P00738; disulfide-linked dimer; N-glycosylated; C-terminal 8xHis tag omitted / …
stoichiometry N: 2

Reference: PMC5856381, “Phenotype-specific recombinant haptoglobin polymers co-expressed with C1r-like protein as optimized hemoglobin-binding therapeutics” (BMC Biotechnology, 2018)
